In patent publication US20230014151A1, “COMBINATION ANTIVIRAL THERAPY FOR MEASLES” (The Trustees of Columbia University in the City of New York, priority 2019, published 2023):
Entries after “also recorded” stand apart in the source; their conditions may differ. Read-outs that look alike come from different tables or passages of the source. Numbered stars: 1 amine (or outer) side, 2 acyl side, 3 side chain; on linkers, the order of the positions; unused ones are H or OH. Bridge positions count the residues as written; N and C are the ends. Square brackets hold non-standard residues; d marks the D form. Ends that are not written are not given here. Peptide text beside a SMILES is read from it. I, II: the chains in the order shown. * marks the point of attachment. X1 = CC(C)CCC[C@@H](C)[C@H]1CC[C@H]2[C@@H]3CC=C4C[C@@H](OCCN(CCNC(=O)CCOCCOCCOCCOCCNC(=O)CCCN5C(=O)CC([*:1])C5=O)CCNC(=O)CCOCCOCCOCCOCCNC(=O)CCCN5C(=O)CC([*:2])C5=O)CC[C@]4(C)[C@H]3CC[C@]12C; X2 = O=C(CCN1C(=O)CC([*:1])C1=O)NCCOCCOCCOCCOCCOCCOCCOCCOCCOCCOCCOCCNC(=O)CCN1C(=O)CC([*:2])C1=O; Cbz = O=C(OCc1ccccc1)*

Tests used:
[1] = target: measles virus (MeV) fusion protein F, wild type, expressed on cells (measles virus) (UniProt Q786F3); assay: cell-based or functional assay
[2] = target: measles virus (MeV) fusion protein F, wild type, expressed on cells (measles virus) (UniProt Q786F3); assay: cell-based or functional assay; remark: listed apart in the source
[3] = test system: vesicular stomatitis virus (VSV); conditions: 16 h
[4] = target: viral glycoproteins (H and F); Nectin-4 (Measles virus, UniProt Q786F3); assay: beta-galactosidase complementation-based fusion assay, Nectin-4 target cells
[5] = test system: soluble MeV F; type: biochemical, measles virus
[6] = target: T1, soluble MeV F (Measles virus, UniProt Q786F3); type: biochemical; conditions: peptide in culture medium, supernatant 24 hours post transfection
T1 construct: produced in a soluble form, with the ablation of the intracytoplasmic and transmembrane domains; Tobacco Etch Virus protease site (C); foldomer (trimerization) domain (C); 6xHis (C); made in house; host or cells: 293T (culture supernatant)

[7] = target: viral glycoproteins (H and F); CD150; assay: beta-galactosidase complementation-based fusion assay, CD150 target cells; conditions: for IC90: read-out: CD150 IC90

Molecule | IC50, beta-galactosidase complementation-based fusion assay, Nectin-4 target cells [1] | IC90, beta-galactosidase complementation-based fusion assay, Nectin-4 target cells [1] | IC90, beta-galactosidase complementation-based fusion assay, Nectin-4 target cells [2] | other results
FIP-peg4-chol (peptide) | 4000 nM | 7620 nM |  | 
FIP-HRC450-485 (peptide) | 4240 nM |  | > 10000 nM | 
CC[C@H](C)[C@H](NC(=O)[C@H](CC(C)C)NC(=O)[C@H](CO)NC(=O)[C@H](Cc1c[nH]cn1)NC(=O)[C@@H](NC(=O)[C@H](CC(C)C)NC(=O)[C@H](CO)NC(=O)[C@@H](NC(=O)[C@H](Cc1ccc(O)cc1)NC(=O)[C@H](CC(N)=O)NC(=O)[C@H](CC(N)=O)NC(=O)[C@@H](NC(=O)[C@H](CCC(=O)O)NC(=O)[C@H](CCCNC(=N)N)NC(=O)[C@H](CC(=O)O)NC(=O)[C@H](Cc1c[nH]c2ccccc12)NC(=O)[C@H](CCC(=O)O)NC(=O)[C@H](CCSC)NC(=O)[C@H](Cc1c[nH]c2ccccc12)NC(=O)CNC(=O)[C@H](CO)NC(=O)CNC(=O)[C@H](CO)NC(=O)CNC(=O)CNC(=O)[C@H](Cc1ccccc1)NC(=O)[C@@H](Cc1ccccc1)NC(=O)OCc1ccccc1)[C@@H](C)CC)[C@@H](C)O)[C@@H](C)CC)C(=O)N[C@@H](CCC(=O)O)C(=O)N[C@@H](CCC(=O)O)C(=O)N[C@@H](CO)C(=O)N[C@@H](CCC(N)=O)C(=O)N[C@@H](CC(N)=O)C(=O)N[C@@H](CCC(N)=O)C(=O)N[C@@H](CCC(N)=O)C(=O)N[C@@H](CCC(=O)O)C(=O)N[C@@H](CCCCN)C(=O)N[C@@H](CC(N)=O)C(=O)N[C@@H](CCC(=O)O)C(=O)N[C@@H](CCC(N)=O)C(=O)N[C@@H](CCC(=O)O)C(=O)N[C@@H](CC(C)C)C(=O)N[C@@H](CC(C)C)C(=O)NCC(=O)N[C@@H](CO)C(=O)NCC(=O)N[C@@H](CO)C(=O)NCC(=O)N[C@@H](CSC1CC(=O)N(CCCC(=O)NCCOCCOCCOCCOCCC(=O)NCCN(CCNC(=O)CCOCCOCCOCCOCCNC(=O)CCCN2C(=O)CC(SC[C@H](NC(=O)CNC(=O)[C@H](CO)NC(=O)CNC(=O)[C@H](CO)NC(=O)CNC(=O)[C@H](CC(C)C)NC(=O)[C@H](CC(C)C)NC(=O)[C@H](CCC(=O)O)NC(=O)[C@H](CCC(N)=O)NC(=O)[C@H](CCC(=O)O)NC(=O)[C@H](CC(N)=O)NC(=O)[C@H](CCCCN)NC(=O)[C@H](CCC(=O)O)NC(=O)[C@H](CCC(N)=O)NC(=O)[C@H](CCC(N)=O)NC(=O)[C@H](CC(N)=O)NC(=O)[C@H](CCC(N)=O)NC(=O)[C@H](CO)NC(=O)[C@H](CCC(=O)O)NC(=O)[C@H](CCC(=O)O)NC(=O)[C@@H](NC(=O)[C@H](CC(C)C)NC(=O)[C@H](CO)NC(=O)[C@H](Cc3c[nH]cn3)NC(=O)[C@@H](NC(=O)[C@H](CC(C)C)NC(=O)[C@H](CO)NC(=O)[C@@H](NC(=O)[C@H](Cc3ccc(O)cc3)NC(=O)[C@H](CC(N)=O)NC(=O)[C@H](CC(N)=O)NC(=O)[C@@H](NC(=O)[C@H](CCC(=O)O)NC(=O)[C@H](CCCNC(=N)N)NC(=O)[C@H](CC(=O)O)NC(=O)[C@H](Cc3c[nH]c4ccccc34)NC(=O)[C@H](CCC(=O)O)NC(=O)[C@H](CCSC)NC(=O)[C@H](Cc3c[nH]c4ccccc34)NC(=O)CNC(=O)[C@H](CO)NC(=O)CNC(=O)[C@H](CO)NC(=O)CNC(=O)CNC(=O)[C@H](Cc3ccccc3)NC(=O)[C@@H](Cc3ccccc3)NC(=O)OCc3ccccc3)[C@@H](C)CC)[C@@H](C)O)[C@@H](C)CC)[C@@H](C)CC)C(=O)O)C2=O)CCO[C@H]2CC[C@@]3(C)C(=CC[C@H]4[C@@H]5CC[C@H]([C@H](C)CCCC(C)C)[C@@]5(C)CC[C@@H]43)C2)C1=O)C(=O)O (stereo partly drawn) [FIP HIV] |  |  |  | IC50 [3]: > 5000 nM
CC[C@H](C)[C@H](NC(=O)[C@H](C)NC(=O)[C@H](CC(N)=O)NC(=O)CNC(=O)[C@H](CC(C)C)NC(=O)[C@H](CC(N)=O)NC(=O)[C@@H](NC(=O)CNC(=O)[C@@H](NC(=O)[C@H](CC(=O)O)NC(=O)[C@H](CC(C)C)NC(=O)[C@H](CCCNC(=N)N)NC(=O)[C@H](CCC(=O)O)NC(=O)[C@H](CC(C)C)NC(=O)[C@H](CO)NC(=O)[C@@H](NC(=O)[C@@H]1CCCN1C(=O)[C@@H]1CCCN1C(=O)CNC(=O)[C@H](CO)NC(=O)CNC(=O)[C@H](CO)NC(=O)CNC(=O)CNC(=O)[C@H](Cc1ccccc1)NC(=O)[C@@H](Cc1ccccc1)NC(=O)OCc1ccccc1)[C@@H](C)CC)C(C)C)[C@@H](C)O)C(=O)N[C@@H](C)C(=O)N[C@@H](CCCCN)C(=O)N[C@@H](CC(C)C)C(=O)N[C@@H](CCC(=O)O)C(=O)N[C@@H](CC(=O)O)C(=O)N[C@@H](C)C(=O)N[C@@H](CCCCN)C(=O)N[C@@H](CCC(=O)O)C(=O)N[C@@H](CC(C)C)C(=O)N[C@@H](CC(C)C)C(=O)N[C@@H](CCC(=O)O)C(=O)N[C@@H](CO)C(=O)N[C@@H](CO)C(=O)N[C@@H](CC(=O)O)C(=O)N[C@@H](CCC(N)=O)C(=O)N[C@H](C(=O)N[C@@H](CC(C)C)C(=O)N[C@@H](CCCNC(=N)N)C(=O)NCC(=O)N[C@@H](CO)C(=O)NCC(=O)N[C@@H](CO)C(=O)NCC(=O)N[C@@H](CSC1CC(=O)N(CCC(=O)NCCOCCOCCOCCOCCOCCOCCOCCOCCOCCOCCOCCNC(=O)CCN2C(=O)CC(SC[C@H](NC(=O)CNC(=O)[C@H](CO)NC(=O)CNC(=O)[C@H](CO)NC(=O)CNC(=O)[C@H](CCCNC(=N)N)NC(=O)[C@H](CC(C)C)NC(=O)[C@@H](NC(=O)[C@H](CCC(N)=O)NC(=O)[C@H](CC(=O)O)NC(=O)[C@H](CO)NC(=O)[C@H](CO)NC(=O)[C@H](CCC(=O)O)NC(=O)[C@H](CC(C)C)NC(=O)[C@H](CC(C)C)NC(=O)[C@H](CCC(=O)O)NC(=O)[C@H](CCCCN)NC(=O)[C@H](C)NC(=O)[C@H](CC(=O)O)NC(=O)[C@H](CCC(=O)O)NC(=O)[C@H](CC(C)C)NC(=O)[C@H](CCCCN)NC(=O)[C@H](C)NC(=O)[C@@H](NC(=O)[C@H](C)NC(=O)[C@H](CC(N)=O)NC(=O)CNC(=O)[C@H](CC(C)C)NC(=O)[C@H](CC(N)=O)NC(=O)[C@@H](NC(=O)CNC(=O)[C@@H](NC(=O)[C@H](CC(=O)O)NC(=O)[C@H](CC(C)C)NC(=O)[C@H](CCCNC(=N)N)NC(=O)[C@H](CCC(=O)O)NC(=O)[C@H](CC(C)C)NC(=O)[C@H](CO)NC(=O)[C@@H](NC(=O)[C@@H]3CCCN3C(=O)[C@@H]3CCCN3C(=O)CNC(=O)[C@H](CO)NC(=O)CNC(=O)[C@H](CO)NC(=O)CNC(=O)CNC(=O)[C@H](Cc3ccccc3)NC(=O)[C@@H](Cc3ccccc3)NC(=O)OCc3ccccc3)[C@@H](C)CC)C(C)C)[C@@H](C)O)[C@@H](C)CC)[C@@H](C)CC)C(=O)O)C2=O)C1=O)C(=O)O)[C@@H](C)CC (stereo partly drawn) [[FIP-HRC450-485]2-peg11] |  |  |  | IC50 [4]: 528 ± 635 nM; IC90 [4]: 1180 ± 979 nM; IC90 ([4]; read-out: Nectin4 IC90): 1180 ± 979 nM; stabilization of soluble F by FIP-HRC (dimer without cholesterol), FIGS. 117A-E ([5]; 55° C., 1 mM peptide, compared with FIP commercial, FIP dimer, 3 g): remains in its pre-fusion state incubation at 55 °C for up to two hours; also recorded: wt F is partially stabilized; also recorded: superior to commercially available stabilizer like the commercial FIP and 3 g; stabilization of soluble F proteins on heating ([5]; wt, E455G, E170G E455G soluble F, 45° C. or 55° C. for 30', 1 uM peptide): stabilize all the soluble F protein at both 45 °C and 55 °C; stabilization of wt soluble F in pre-fusion state [6]: stabilize the wt soluble F; stabilization of wt soluble F in pre-fusion state ([6]; listed as FIP-HRC-PEG11-dimer): wt F protein remains in its pre-fusion state; IC50 [7]: 278 ± 229 nM; IC90 [7]: 916 ± 162 nM
HRC450-485-chol (peptide) |  | > 7000 nM | > 1000 nM | IC50, beta-galactosidase complementation-based fusion assay, Nectin-4 target cells [2]: 103 nM
FIP-chol (peptide) | 4000 nM | 7620 nM | > 10000 nM | IC50, beta-galactosidase complementation-based fusion assay, Nectin-4 target cells [2]: > 10000 nM
HRC450-485-peg4-chol (peptide) | 123 nM | 856 nM |  | 
O=C(CCN1C(=O)CC(SC[C@H](NC(=O)CNC(=O)[C@H](CO)NC(=O)CNC(=O)[C@H](CO)NC(=O)CNC(=O)CNC(=O)[C@H](Cc2ccccc2)NC(=O)[C@@H](Cc2ccccc2)NC(=O)OCc2ccccc2)C(=O)O)C1=O)NCCOCCOCCOCCOCCOCCOCCOCCOCCOCCOCCOCCNC(=O)CCN1C(=O)CC(SC[C@H](NC(=O)CNC(=O)[C@H](CO)NC(=O)CNC(=O)[C@H](CO)NC(=O)CNC(=O)CNC(=O)[C@H](Cc2ccccc2)NC(=O)[C@@H](Cc2ccccc2)NC(=O)OCc2ccccc2)C(=O)O)C1=O (stereo partly drawn) [[FIP]2-peg11] (I: Cbz-[dF]FGGSGSGC-OH / II: Cbz-[dF]FGGSGSGC-OH; linker I:9-II:9 via X2) |  |  |  | IC50 ([4]; Nectin4 IC50, Table 3 (extended version)): > 10000 nM; IC90 ([4]; read-out: Nectin4 IC90): > 10000 nM; IC50 [7]: > 1000 nM; IC90 [7]: > 1000 nM
FIP-HRC450-485-chol (peptide) | 214 nM | 614 nM | 446 nM | IC50, beta-galactosidase complementation-based fusion assay, Nectin-4 target cells [2]: 251 nM
HRC450-485 (peptide) | > 10000 nM | > 10000 nM |  | 
FIP-HRC450-485-peg4-chol (peptide) | 214 nM | 614 nM |  | 
I: Cbz-[dF]FGGSGSGVALDPIDISIVLNKIKSDLEESKEWIRRSNKILDSIGSGSGC / II: Cbz-[dF]FGGSGSGVALDPIDISIVLNKIKSDLEESKEWIRRSNKILDSIGSGSGC (linker I:50-II:50 via X1; N-terminus assumed) [FIP VI KI] |  |  |  | IC50 [3]: > 5000 nM
